Measured values as given in patent US10975360B2, “Process for the modification of alkanes, fatty acids and fatty alcohols” (priority 2016, dated 2021).

B1: CYP505Hv: CYP505 cytochrome P450 monooxygenase from Hypocrea virens, SEQ ID No 10 (protein, listed as Hypocrea virens)
chain: MKPAKNPNLVEIPKPKGLPVIGSLHHIDLESPLFSLIELIQPLGPICQLTFGSELNIFVSSIELLNELCDESRFQKIVTAELEKLRHVVHDGLFTARNEERNWEIAHRILMPVFGTIKIREMFPEMKDLAQQLCLKWARYGEEYVIDVTADFTRLTLDTLALCTMGFRFNSFHNGTVLHPFVDSMVRTLKEASVQAALPNFINSLRKKSWRRYEKDTAFMRKLCQDIIDKRKSQTDTDSHDLLAALLRGRDPKTGEGLSDDSIIDNMLTFLIAGHETTSGLLSFAMYYLLANPQTMEKARQEVDEVSQGSPIAVEHLSKLPYLNAVLKETLRLQPTAPGFILSSPKDEIIGGKYLIPANIPIGVLLHMVHLDKAVYGEDAAEFKPERMLDENFNKLPPNSWKPFGNGMRGCIGRAFATQEALLIVAMLLQSFTFEMADPGYKLKIKETLTVKPDNFRMKAKLRRGGTATDFQRELQSLGSVGAKLSSTPSVTSAQTGGGDKKPLTILYGSNSGTCEALAYRLASDATLHGFYARKIAPLNAARNSLPKSEPVIILAASYDGLPSDNAEEFFDWLNTAEKDSLKGVSYSVFGCGHRDWVATFQRVPILIDDLLQRAGAERFANRGLADSAVMDLFVELEKWTTDSVWPAISQTDGKQDNDGEGKLISSLLKVEFSQPRQLQQYSHLVEATVMESRSLTTPSAIGKKMHVDIQLPSGVSYHPGDHLLVLPVNPIRNVKRVLSRFHLTWDTIVRASGNESVRIPIETAMTVHELLSSYFELAQPATPRDIRVLAAAAEDEATKQVLNNLATTSYLEDIQEKKTSLLDLLEKFPEISIAFGTYLTLLPSLRLRTYSISSSPSWNSSRATLTLSVLDEPATTPGSKRYLGVASNHLAGLTPGDLIHVATRPVKGIFQMPADLSKAPTIMIAAGAGLAPFRGFIQERAYQQQNGVQLAPAALFFGCRSSHDDLYRSELDAFESSGVIRVFRAYSREDVGSKSNTRKGYVQDSLQAEKDVFVQLWNAGAKVYVCGSVKMASQVKDLVANLVYTAEPMDAQKEFTPQEWFKRFEKTRYAAEIFT
B2: CYP505Om: CYP505 cytochrome P450 monooxygenase from Oidiodendron maius, SEQ ID No 11 (protein, listed as Oidiodendron maius)
chain: MTKKNHALIPIPGPSVWPLLGNLFDIDTEHGLASVLEMGRSYGDIFQLVLGGNKLVFLQTHALFDEVCDESRFCKVVVSGLGNLRAGVNDGLFTAHDGEHNWGVAHRIIMPIFGPIKIRETLGGMKDVCQELSLKWARYGPDHRIDIAGDLTRLTLDTIAFCTMGYRFNSFYRNSDVHPFVKSMVGFLREADKSSMIPEYLNAFRWKARRSFLGDIASMREMSMMILNLRRGNPSDRDDLLNALLHGRDPKTGEGMSDESIINNLITFLVAGHETTSGALSFVFYYLLTNPESLKNAREEVDRVIGAGNITADHLSKLPYIDAVLREALRLNPTGPAITLGAREDTTLGGKYAVKKGEPVLCMFHNIHRDKKVYGEDADEWKPERMMDENFNKLPKNAWKPFGNGTRGCIGRAFAWQESQLVIASILQNFDLTLDNPDYKLEIVETLTIKPGNFYVRAKLRSGRTPRELCGFSNPISTNIQIKNGTIAPANDGQVGNSTPVTILYGSNSGTCEALAHRLARDAPSYGYSVTTVATLDSVIGILPRAKDELVVIITCSYDGLPADNAVRFCNWLKTLDEDALGGMPFAVFACGHHDWAKTFYKVPIMIDELLARAGAHRVAQMGKANSAVSDMFSDLENWEDEHLWSSSSAAGNETVDNVARTEVKQDITITNPRARALHHNAVECIVSETHKLSESGSALKYHVEIQLPANMKYAPGDHLSVLPINPRQNVRRALARFHLAGDSVLSVARIGHMGTLGQETLSAFDVFASYVELSQPATRRNIATLLSVTPEGEGRYELAELGGAAFESQIRDMRVSVLDLLERYKAIKLCVGAFIDMLPPLRVRTYSISSSALWKPSHASLTISVLAQPALSGQGSFLGVASNFLADLVPGDAVHFTIRPCKKQFHLPDDASAHPIIMVAAGSGIAPFRGFIQDRALQRRNGVQLQPAILFFGCRGSKQDDLYRQELDEFEAEGVVSVRRAFSGEETVSISESRMYVQDRMWADRAEVIQLWNLGAKIYVCGGINMADGVREIFNEIVGPTEVDGKRGAESLNKLSEETMSARYVAEIFSQT
B3: CYP505Ao: CYP505 cytochrome P450 monooxygenase from Aspergillus oryzae, SEQ ID No 9 (protein, listed as Aspergillus oryzae)
chain: MRQNDNEKQICPIPGPQGLPFLGNILDIDLDNGTMSTLKIAKTYYPIFKFTFAGETSIVINSVALLSELCDETRFHKHVSFGLELLRSGTHDGLFTAYDHEKNWGLAHRLLVPAFGPLRIREMFPQMHDIAQQLCLKWQRYGPRRPLNLVDDFTRTTLDTIALCAMGYRFNSFYSEGDFHPFIKSMVRFLKEAETQATLPSFISNLRVRAKRRTQLDIDLMRTVCREIVTERRQTNLDHKNDLLDTMLTSRDSLSGDALSDESIIDNILTFLVAGHETTSGLLSFAVYYLLTTPDAMAKAAHEVDDVVGDQELTIEHLSMLKYLNAILRETLRLMPTAPGFSVTPYKPEIIGGKYEVKPGDSLDVFLAAVHRDPAVYGSDADEFRPERMFDEHFQKLPANSWKPFGNGKRSCIGRAFAWQEALMILALILQSFSLDLVDRGYTLKLKESLTIKPDNLWAYATPRPGRNVLHARLALQTNSTHPEGLMSLKHETVESQPATILYGSNTGTCEALAHRLAIEMSSKGRFVCKVQPMDEIEHRRLPRGQPVIIVTGSYDGRPPENARHFVKWLQSLEGNDLEGIQYAVFGCGLPGHHDWSTTFYKIPTLIDTIMAEHGGARLAPRGSADTAEDDPFVELESWSERRVWPGLEAAFDLVRHNSSDGTGKSTRITIRSPYTLRAAHETAVVHQVRVLTSAETTKKVHVELALPDTINYRPGDHLAILPLNSRQSVQRVLSLFQIGSDTILYITSSSATSLPTDTPISAHDLLSGYVELNQVATPTSLRSLAAKATDEKTAEYLEALATDRYTTEVRGNHLSLLDILESYSVPSIEIQHYIQMLPPLRPRQYTISSSPRLNRGQASLTVSVMERADIGGPRNCAGVASNYLASCTPGSILRVSLRHANPDFRLPDESCSHPIIMVAAGSGIAPFRAFVQERSVRQKEGIILPPAFLFFGCRRADLDDLYREELDAFEEQGVVTLFRAFSRAQSESHGCKYVQDLLWMERVRVKTLWGQDAKVFVCGSVRMNEGVKAIISKIVSPTPTEELARRYIAETFI
B4: CYP505St: CYP505 cytochrome P450 monooxygenase from Setosphaeria turcica, Seq ID 12 in Table 2 (protein, listed as Setosphaeria turcica)
chain: MSAPNRQLVPIPGPSALPIVGNTFDLDLDASIQSLVNMFEEYGPVFQLTIAGHKQIFVGNVQLTNEVCDESRFCKIVFSGLELLRSAVHDGLFTAHEGERNWDIAHRILMPVFGPTKIRGMFDQMNDIAQQLCLKWGRYGPTFPIEVTEDFTRLTLDTIALCAMGYRFNSFYRDNMHPFVDRMNRFLKDTNTQSGLPDLFNSLWLHAKKRNKEDIKAMREFSQEVVDQRRQNPVDADDLLNALLHQTDPKTGEGLSDSSIIDNMITFLVAGHETTSGLLSFAFYYMLKNPWAMEKAQQEVDNVIGTERVTVNHLSKLEYLNAILRETLRLMPTAPAFTVGALKDDVIGGKYAVKKGEPINPILQAVHCDKEVYGPDATEWKPERMLEEGFHKLPANSWKPFGNGKRGCIGRAFAWQEALLVVAVLLQSFTFTEDDPSYQLRIREALTIKPDGFKIRATLREHKTTAGMVPESVQSLRQAQKSGKPGNSKSSANESMVGQGNGRSVSIFYGSNSGSCESLANLLASDCAKYGFSVQTTDALDAARENFTSNQIVLIVASTYDGKPADNATEFVNWLKSLTGEPLKGVSYAVFGCGHHDWATTFYKIPILIDELLEQRGAQRVAPRGAANAAVSDLFSDLEKWEESILWPALGLTPALLESQGDTQPRLTISFQRPYTQRKEFLEATVTSASELTTSASPSRKCHMELQLPQDMTYNTGDYLAVLPLNPLSNVQRALSRFHLAWDSVLVIEATGPTQLPTATPISVADLFGAYVELSQPATPRNIRALAGAASDEPTKQALLKLAEDDFATQVRDKRLSVLDLLGQYESVALPVEAFIEMLLPLRPRTYSISSAPQWNPSHASITWSIIDTVSWSGHGRFLGVASNHLYDLSPGAVVRVSVRRSNPAFHPPQDPNSYPIIMIASGSGLAPFRGFIQERALQQKAGMTLAPALLFFGCRGRDDDLHRAEMDDFEKSGVVRVMRAYSKAPNEPDAFGCAYIQERVWSERKEFRELWNRGATVFVCGGTKMSEAIKDVFIKIAYGNAGQDDNKSSRDWFASLDPHRYVAEVFN

format: cell-based, P. pastoris
Description: Precultures of P. pastoris transformants were prepared in buffered complex glycerol media (BMGY). BMGY contained: 10 g/l yeast extract, 20 g/l peptone, 3.4 g/l yeast nitrogen base, 10 g/l ammonium sulfate, 100 mM potassium phosphate (pH 6), 0.4 mg/l biotin and 1% (v/v) glycerol. Erlenmeyer flasks (500 ml) containing 50 ml BMGY media were inoculated with single colonies of 24 h old YPD-agar cultures of P. pastoris KM71 mut^s3/CYP505E3 and incubated at 30° C. and 225 rpm for 24 h. The cultures were harvested using pre-weighed centrifuge tubes at 3000 g for 5 min and stored on ice until further use.
The main cultures for expression were prepared in buffered complex methanol media (BMMY) containing 10 g/l yeast extract, 20 g/l peptone, 3.4 g/l yeast nitrogen base, 10 g/l ammonium sulfate, 100 mM potassium phosphate (pH 6), 0.4 mg/l biotin and 0.5 or 1% (v/v) methanol. Harvested cells from precultures were resuspended in BMMY media to final concentration of 1 g WC per 40 ml (appx. 25 g/l). The resuspended cultures (100 ml) were transferred to 500 ml Erlenmeyer flasks and incubated at 25° C. and 225 rpm for 24 h. The cultures were then harvested at 3000 g for 5 min using pre-weighed centrifuge tubes.
Different transformants of Pichia pastoris KM71 harbouring the CYP505 genes for SEQ ID Nos 1 to 7 and 9 to 12 were grown and harvested as described above. The harvested cells were resuspended to give 1 g wet cell weight in 40 ml MOPS buffer (200 mM, 100 mM glucose, 100 mM glycerol, pH 8) and 1 ml aliquots of these cell suspensions were transferred to 40 ml amber vials. Dodecane, 1-dodecanol and 1-tetradecanol were added neat to these cell suspensions to give final concentrations of 200 mM in the case of the alcohols and 1 M in the case of dodecane while in the case of dodecanoic acid 20 μl of a 500 mM stock solution (in DMSO) was added to give a final concentration of 10 mM. Transformants harbouring the CYP505 genes for SEQ ID Nos 1 to 4 were tested for the biotransformation of 1-dodecanol, 1-tetradecanol, dodecanoic acid, tetradecanoic acid and dodecane, while those harbouring the CYP505 genes for SEQ ID Nos 5 to 7 and 9 to 12 were only tested for the biotransformation of 1-dodecanol and dodecanoic acid. The biotransformations were incubated at 25° C. and 225 rpm for 24 h. Extractions were performed using ethyl acetate (500 μl×2). The extracts were analyzed using GC/MS.

ω-7 hydroxylase activity C12FA, −:
B1
B2
B3
B4

ω-7 hydroxylase activity C12ol, −:
B1
B2
B3
B4
